In PMC7611338 (Current biology : CB, 2021):

Molecular target: the molecule itself
Assay: fluorescence correlation spectroscopy

B1: dE-cad^WT::GFP (Drosophila E-cadherin, wild type, GFP-tagged) (natural protein)
chain: PGQSYAIIVRAYNVVPDPPQDAQIEVRIRVVESSIKPPSFVNPIDTPIYLKENLKNFTHPIATLRAVSNMPDKPEVIFELNTGRTEQTNSKNTFVFNQIGNEVTISLGKTLDYEAITDYTLTMIVRNTHELGTEHQIKIQVEDVNDNIPYYTEVKSGTILENEPPGTPVMQVRAFDMDGTSANNIVSFELADNREYFTIDPNTGNITALTTFDREERDFYNVKVIASDNSPSSLFDNGEPNRGHQVFRISIGDKNDHKPHFQQDKYLAERLLEDANTNTEVIEVKAEDEDNASQILYSIESGNVGDAFKIGLKTGKITVNQKLDYETITEYELKVRAFDGIYDDYTTVVIKIEDVNDNPPVFKQDYSVTILEETTYDDCILTVEAYDPDIKDRNADQHIVYSIHQNDGNRWTIDNSGCLRLVKTLDRDPPNGHKNWQVLIKANDEDGVGTTVSTVKEVTVTLKDINDNAPFLINEMPVYWQENRNPGHVVQLQANDYDDTPGAGNFTFGIDSEATPDIKTKFSMDGDYLHANVQFDREAQKEYFIPIRISDSGVPRQSAVSILHLVIGDVNDNAMSEGSSRIFIYNYKGEAPETDIGRVFVDDLDDWDLEDKYFEWKDLPHDQFRLNPSTGMITMLVHTAEGEYDLSFVVTEDSMFVPRHSVDAYVTVVVRELPEEAVDKSGSIRFINVTKEEFISVPRDFQSPDALSLKDRLQLSLAKLFNTSVSNVDVFTVLQNENHTLDVRFSAHGSPYYAPEKLNGIVAQNQQRLENELDLQMLMVNIDECLIEKFKCEESCTNELHKSSVPYMIYSNTTSFVGVNAFVQAQCVCEAPLMRRCLNGGSPRYGENDVCDCIDGFTGPHCELVSVAFYGSGYAFYEPIAACNNTKISLEITPQIDQGLIMYLGPLNFNPLLAISDFLALELDNGYPVLTVDYGSGAIRIRHQHIKMVADRTYQLDIILQRTSIEMTVDNCRLSTCQTLGAPIGPNEFLNVNAPLQLGGTPVDLEQLGRQLNWTHVPNQKGFFGCIRNLTINEQTYNLGMPSVFRNIDSGCQQSVAVAFSFGIDRNFIIAIIVCLALLLIILLAVVVQKKQKNGWHEKDIDDIRETIINYEDEGGGERDTDYDLNVLRTQPFYEEKLYKDPHALQGNMRDPNDIPDIADFLGDKKENCDRDVGATTVDDVRHYAYEGDGNSDGSLSSLASCTDDGDLNFDYLSNFGPRFRKLADMYGEEPSDTDSNVDDDQGWRI
stoichiometry N: ~4
